Measured values from patent US20030114404.

What was measured:
[1] = system: T1, VEGF165 (Homo sapiens), P15692-4; test: filter; settings: 2'-F pyrimidines; 37 C
T1 sequence: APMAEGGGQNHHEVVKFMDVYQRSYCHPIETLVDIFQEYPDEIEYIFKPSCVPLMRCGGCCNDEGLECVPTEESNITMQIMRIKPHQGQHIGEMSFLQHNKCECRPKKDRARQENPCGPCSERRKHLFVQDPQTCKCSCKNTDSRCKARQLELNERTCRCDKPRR

VEGF, P15692-4 = system: T2, VEGF, P15692-4; test: cell_activity; settings: NX278 (dialkylglycerol, 2'-NH2, 2'-OMe, PS) embedded in DSPC:cholesterol liposome; KSY-1 Kaposi's sarcoma cell proliferation; HUVEC IC50 about 300 nM (p159)
T2 sequence: T1 sequence

| Sequence | Kd [1] [nM] | IC50 (VEGF, P15692-4) [nM] |
| --- | --- | --- |
| GGGAGGACGAUGCGGAGAAUCAGUGAAUGCUUAUAAAUCUCGYGUCAGACGACUCGCCCGA [VT30.3] | 0.005 | – |
| GGGAGGACGAUGCGGAYCAACCGAUUGACGUUAUGGGACGCUGGUCAGACGACUCGCCCGA [VP30.5] | 0.008 | – |
| GGGAGGACGAUGCGGCGGYACUUUGGAAGAAUUGAAUUUCCCGCUCAGACGACUCGCCCGA [VP30.26] | 0.01 | – |
| GGGAGGACGAUGCGGUAGGAAGAAUUGGAAGCGCAUUUUCCUCGYCAGACGACUCGCCCGA [VP30.22] | 0.02 | – |
| GGGAGGACGAUGCGGYGAACCGAUGGAAUUUUUGGACGCUCGCCUCAGACGACUCGCCCGA [VP30.2] | 0.01 | – |
| TTTTACCCUGAUGGUAGACGCCGGGGUGTTTTT [NX278-Liposome] | – | 100 |
